Reference: patent US20250011430A1

Target: human B7H3 ECD-His (human) (UniProt Q5ZPR3)
Experiment: ForteBio BLI, antibody on AHQ sensor, 60 nM antigen, 1:1 model

Enoblituzumab (antibody) showed a Kd of 0.773 nM.
